For orientation: EC50 means the midpoint of the concentration-response curve. Read a high EC50 as weaker potency.

The values that follow come from patent EP4806514A2 (Lepu Biopharma Co., Ltd., dated 2025).

Assay [1] addresses T1, rhesus CDH17-his (Kactus, Cat. No. CDH-RM117) (rhesus, UniProt A0A1D5R2B4 23-784).
T1 construct: range 23-784; also called rhesus CDH17 protein
T1 sequence: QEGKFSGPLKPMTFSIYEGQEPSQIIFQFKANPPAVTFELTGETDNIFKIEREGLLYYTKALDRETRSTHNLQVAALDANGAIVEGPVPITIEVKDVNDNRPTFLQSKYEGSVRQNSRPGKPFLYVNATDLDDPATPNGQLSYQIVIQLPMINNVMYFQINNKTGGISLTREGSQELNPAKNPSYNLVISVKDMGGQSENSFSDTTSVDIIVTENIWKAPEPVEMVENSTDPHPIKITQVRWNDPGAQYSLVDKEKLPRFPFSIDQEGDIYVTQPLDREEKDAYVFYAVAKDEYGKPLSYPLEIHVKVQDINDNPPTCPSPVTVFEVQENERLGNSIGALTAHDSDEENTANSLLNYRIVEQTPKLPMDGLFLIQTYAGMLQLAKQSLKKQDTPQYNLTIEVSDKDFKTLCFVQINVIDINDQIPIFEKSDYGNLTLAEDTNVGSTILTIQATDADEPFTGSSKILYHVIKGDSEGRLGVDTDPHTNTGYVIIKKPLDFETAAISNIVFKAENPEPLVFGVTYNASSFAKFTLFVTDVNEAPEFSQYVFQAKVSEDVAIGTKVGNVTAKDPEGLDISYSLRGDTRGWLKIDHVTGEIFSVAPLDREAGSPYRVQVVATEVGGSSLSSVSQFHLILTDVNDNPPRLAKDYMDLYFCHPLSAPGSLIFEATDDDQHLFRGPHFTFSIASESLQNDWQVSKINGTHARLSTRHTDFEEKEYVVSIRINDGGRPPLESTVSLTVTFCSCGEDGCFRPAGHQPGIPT
The assay can be described thus: ELISA, rhesus CDH17-his coated at 1 ug/mL. On the technique in general: ELISA stands for enzyme-linked immunosorbent assay.

Assay [2] addresses T2, human CDH9-his (Acro bio, Cat. No. CA9-H52H6) (human, UniProt Q9ULB4 54-615).
T2 construct: Bought; also called human CDH9 protein
T2 sequence (looked up): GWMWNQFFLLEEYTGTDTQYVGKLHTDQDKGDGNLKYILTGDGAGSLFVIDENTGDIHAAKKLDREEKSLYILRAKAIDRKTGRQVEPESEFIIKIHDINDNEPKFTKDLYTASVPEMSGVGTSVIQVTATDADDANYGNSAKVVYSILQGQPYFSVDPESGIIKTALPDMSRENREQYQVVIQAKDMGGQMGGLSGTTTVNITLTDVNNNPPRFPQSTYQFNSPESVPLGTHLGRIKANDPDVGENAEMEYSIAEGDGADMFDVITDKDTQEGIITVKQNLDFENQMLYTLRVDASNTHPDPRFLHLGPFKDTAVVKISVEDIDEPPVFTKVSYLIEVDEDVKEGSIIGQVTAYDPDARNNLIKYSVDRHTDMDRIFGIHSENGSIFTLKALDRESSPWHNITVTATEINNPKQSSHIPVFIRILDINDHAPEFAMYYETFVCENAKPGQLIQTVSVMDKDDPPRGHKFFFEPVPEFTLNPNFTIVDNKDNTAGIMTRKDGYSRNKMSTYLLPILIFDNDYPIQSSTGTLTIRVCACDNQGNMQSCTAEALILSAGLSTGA
Put plainly: ELISA, antigen coated at 1 ug/mL.

In assay [3] the target is T3, rhesus CDH17 overexpressed on HEK293 cells (HEK293-rhesus CDH17) (rhesus, UniProt A0A1D5R2B4 23-832).
T3 construct: whole, on cells
T3 sequence: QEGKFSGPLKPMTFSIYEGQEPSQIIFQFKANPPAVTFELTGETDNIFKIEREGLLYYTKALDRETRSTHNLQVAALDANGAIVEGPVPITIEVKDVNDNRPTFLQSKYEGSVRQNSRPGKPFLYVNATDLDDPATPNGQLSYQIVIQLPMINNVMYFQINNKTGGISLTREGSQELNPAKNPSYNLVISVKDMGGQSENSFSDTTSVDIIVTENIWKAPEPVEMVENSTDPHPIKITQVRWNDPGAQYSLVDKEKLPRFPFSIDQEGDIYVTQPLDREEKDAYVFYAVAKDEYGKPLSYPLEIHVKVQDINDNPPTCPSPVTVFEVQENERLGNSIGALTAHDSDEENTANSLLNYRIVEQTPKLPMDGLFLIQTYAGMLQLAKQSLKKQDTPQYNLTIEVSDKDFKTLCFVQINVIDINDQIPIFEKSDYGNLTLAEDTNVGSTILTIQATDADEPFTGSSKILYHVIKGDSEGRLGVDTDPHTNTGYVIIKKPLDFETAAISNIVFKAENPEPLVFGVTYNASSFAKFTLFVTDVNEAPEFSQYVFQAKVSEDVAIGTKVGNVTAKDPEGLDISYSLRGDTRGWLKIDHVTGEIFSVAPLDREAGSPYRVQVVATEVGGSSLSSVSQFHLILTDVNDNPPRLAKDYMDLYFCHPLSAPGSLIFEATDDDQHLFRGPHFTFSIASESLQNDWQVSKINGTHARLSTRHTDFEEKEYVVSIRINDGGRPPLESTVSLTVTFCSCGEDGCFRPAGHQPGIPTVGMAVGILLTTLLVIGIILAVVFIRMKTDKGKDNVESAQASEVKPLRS
The assay can be described thus: flow cytometry, HEK293-rhesus CDH17 cells.

B1: 29H8D3-z12 (antibody, V domains shown)
VH: QVQLVQSGAEVKKPGASVKVSCKASGYTFTDHTIHWMRQRPGQGLEWIGYIYPRDGYTKYNEKFKDRATLTADTSTSTAYMELRSLRSDDTAVYYCARFYYGYWYFDVWGQGTTVTVSS
VL: DIVMTQSPLSLPVTPGEPASISCRSSKSLLRSNGNTYLYWFLQKPGQSPQVLIYRMSNLASGVPDRFSGSGSGTDFTLKISRVEAEDVGVYYCMQHLEYPFTFGQGTKLEIK
notes: Humanized, human IgG1 constant region; also called 29H8D3-z12 mAb
In the case of B1, the EC50 turned out to be 0.163 nM in assay [1] and 0.225 nM in assay [3]. Besides, the binding result in assay [2] is on record as “no binding (tested: titrated from 50 nM)”.
